Measured values published in PMC4411560.
pKd: −log10 of the molar value.

Experiments:
[1] = biological target: 30S IC_(−1/3): canonical 30S initiation complex lacking IF1 and IF3 (E. coli (strain MRE600)); assay: FRET or BRET
[2] = biological target: 30S IC_(−1/3,Met): pseudo 30S initiation complex lacking IF1 and IF3 carrying Met-tRNA^fMet (E. coli (strain MRE600)); assay: FRET or BRET

pKd [1]: 7.30
kon [1]: 1.3e+07 M⁻¹ s⁻¹
koff [2]: 1.3 s⁻¹
kon [2]: 19000 M⁻¹ s⁻¹
Substance: IF2(Cy5): Cy5-labeled E. coli initiation factor 2, γ-isoform, G810C (natural protein)
